US20230051266A1 (ABL BIO, published 2023)
Positions count from the first letter of the chain named. In names and notes the source's numbering stands.

T1: Recombinant Human BCMA (human, UniProt Q02223 1-54)
T1 construct: also called hBCMA; recombinant BCMA
T1 sequence: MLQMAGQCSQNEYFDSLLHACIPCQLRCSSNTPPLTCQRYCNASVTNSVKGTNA

T2: human BCMA-Fc protein (human, UniProt Q02223 1-54)
T2 construct: Coated antigen of the DACE
T2 sequence: T1 sequence

T3: human BCMA on cells (CHOK1-hBCMA; H929 endogenous BCMA) (human, UniProt Q02223 1-184)
T3 construct: Cell-surface BCMA in FACS; also called mammalian expressed BCMA; native antigen
T3 sequence: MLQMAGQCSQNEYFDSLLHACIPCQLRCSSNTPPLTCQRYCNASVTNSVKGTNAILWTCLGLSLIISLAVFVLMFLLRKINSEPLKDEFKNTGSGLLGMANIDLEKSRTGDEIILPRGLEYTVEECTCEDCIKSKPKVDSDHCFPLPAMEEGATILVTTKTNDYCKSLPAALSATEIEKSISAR

B1: 5B5(NA)x41B02 (bispecific antibody, human IgG1, kappa, N297A)
heavy: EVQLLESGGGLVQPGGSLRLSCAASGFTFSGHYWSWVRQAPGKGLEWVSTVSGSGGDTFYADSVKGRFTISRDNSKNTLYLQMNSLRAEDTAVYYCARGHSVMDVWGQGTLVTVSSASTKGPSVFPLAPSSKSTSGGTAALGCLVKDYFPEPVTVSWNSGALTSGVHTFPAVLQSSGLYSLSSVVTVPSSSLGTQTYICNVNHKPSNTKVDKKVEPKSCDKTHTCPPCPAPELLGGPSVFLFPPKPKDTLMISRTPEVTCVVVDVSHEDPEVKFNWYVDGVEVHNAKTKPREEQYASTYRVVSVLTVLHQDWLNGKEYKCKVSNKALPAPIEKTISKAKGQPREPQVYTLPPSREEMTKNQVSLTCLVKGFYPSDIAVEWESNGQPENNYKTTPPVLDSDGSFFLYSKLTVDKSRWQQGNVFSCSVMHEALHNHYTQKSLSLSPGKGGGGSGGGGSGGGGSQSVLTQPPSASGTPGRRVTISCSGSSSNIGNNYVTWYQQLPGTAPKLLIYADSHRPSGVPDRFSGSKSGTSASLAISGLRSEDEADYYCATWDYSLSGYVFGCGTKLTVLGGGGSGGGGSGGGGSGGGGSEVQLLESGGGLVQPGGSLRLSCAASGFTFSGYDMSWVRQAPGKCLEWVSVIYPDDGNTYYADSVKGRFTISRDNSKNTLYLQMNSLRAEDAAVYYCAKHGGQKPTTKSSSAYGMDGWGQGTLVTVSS
light: EIVLTQSPGTLSLSPGERATLSCRASQGIDSYVAWYQQKPGQAPRLLIYDASLRATGIPDRFSGSGSGTDFTLTISRLEPEDFAVYYCQQYNSWPITFGQGTKLEIKRTVAAPSVFIFPPSDEQLKSGTASVVCLLNNFYPREAKVQWKVDNALQSGNSQESVTEQDSKDSTYSLSSTLTLSKADYEKHKVYACEVTHQGLSSPVTKSFNRGEC
notes: IgG1 N297A-scFv (VL-(G4S)4-VH); also called 5B5(NA) x41B02 (1A12)
B2: 5B5(NA)x41B01 (bispecific antibody, human IgG1, kappa, N297A)
heavy: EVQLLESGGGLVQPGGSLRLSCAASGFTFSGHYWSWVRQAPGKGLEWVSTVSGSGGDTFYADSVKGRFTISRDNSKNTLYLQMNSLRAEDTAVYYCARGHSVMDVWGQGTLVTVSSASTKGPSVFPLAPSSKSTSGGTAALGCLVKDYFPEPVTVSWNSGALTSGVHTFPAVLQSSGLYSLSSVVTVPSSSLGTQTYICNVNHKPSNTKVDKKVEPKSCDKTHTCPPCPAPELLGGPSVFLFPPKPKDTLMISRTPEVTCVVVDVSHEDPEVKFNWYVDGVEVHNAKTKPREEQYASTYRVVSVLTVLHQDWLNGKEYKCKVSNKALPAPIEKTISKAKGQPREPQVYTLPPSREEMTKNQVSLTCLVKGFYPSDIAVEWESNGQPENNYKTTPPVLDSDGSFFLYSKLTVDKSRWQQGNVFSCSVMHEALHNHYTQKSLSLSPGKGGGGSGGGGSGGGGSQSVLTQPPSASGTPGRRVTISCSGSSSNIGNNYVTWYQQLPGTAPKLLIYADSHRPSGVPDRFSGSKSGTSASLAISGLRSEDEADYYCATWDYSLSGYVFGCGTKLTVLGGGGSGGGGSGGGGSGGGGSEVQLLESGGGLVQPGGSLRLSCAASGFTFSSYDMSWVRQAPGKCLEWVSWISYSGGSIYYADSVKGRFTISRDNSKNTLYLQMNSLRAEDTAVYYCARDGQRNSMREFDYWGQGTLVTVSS
light: B1 light
notes: IgG1 N297A-scFv; also called 5B5(NA) x41B01 (1A10)
B3: 5D5(NA)x41B01 (bispecific antibody, human IgG1, kappa, N297A)
heavy: not shown
light: B1 light with R24K, G28D, S31D, Y32D, V33I, A34N, Y91S, N92L, S93R, W94T
notes: IgG1 N297A-scFv; also called 5D5(NA) x41B01 (1A10)
B4: 5D5(NA)x41B02 (bispecific antibody, human IgG1, kappa, N297A)
heavy: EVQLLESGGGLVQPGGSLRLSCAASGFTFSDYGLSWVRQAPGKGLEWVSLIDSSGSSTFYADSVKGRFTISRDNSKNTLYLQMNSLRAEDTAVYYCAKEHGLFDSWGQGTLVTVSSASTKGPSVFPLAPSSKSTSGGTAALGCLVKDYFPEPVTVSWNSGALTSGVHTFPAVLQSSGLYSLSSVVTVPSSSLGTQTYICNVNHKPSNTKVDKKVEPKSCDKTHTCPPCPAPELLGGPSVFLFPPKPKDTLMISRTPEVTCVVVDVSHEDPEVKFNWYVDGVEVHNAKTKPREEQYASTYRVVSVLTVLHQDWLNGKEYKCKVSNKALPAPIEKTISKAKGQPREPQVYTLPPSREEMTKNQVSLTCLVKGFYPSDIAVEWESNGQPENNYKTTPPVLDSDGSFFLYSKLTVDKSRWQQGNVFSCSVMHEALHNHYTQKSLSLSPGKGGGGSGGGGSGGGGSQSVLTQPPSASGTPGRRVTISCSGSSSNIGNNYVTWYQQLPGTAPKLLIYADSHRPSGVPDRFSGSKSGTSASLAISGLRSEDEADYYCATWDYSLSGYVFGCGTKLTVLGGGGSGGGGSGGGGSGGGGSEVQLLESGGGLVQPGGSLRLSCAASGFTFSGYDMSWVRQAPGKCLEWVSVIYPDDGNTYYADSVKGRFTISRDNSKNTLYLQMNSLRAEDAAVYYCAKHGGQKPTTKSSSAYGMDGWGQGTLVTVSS
light: B1 light with R24K, G28D, S31D, Y32D, V33I, A34N, Y91S, N92L, S93R, W94T
notes: IgG1 N297A-scFv (VL-(G4S)4-VH); also called 5D5(NA) x41B02 (1A12)
B5: 5A6(NA)x41B02 (bispecific antibody, human IgG1, lambda, N297A)
heavy: not shown
light: QSVLTQPPSASGTPGQRVTISCQGDSLRSYYVNWYQQLPGTAPKLLIYDHSKRPTGVPDRFSGSKSGTSASLAISGLRSEDEADYYCQSYDSSTVVFGGGTKLTVLGQPKAAPSVTLFPPSSEELQANKATLVCLISDFYPGAVTVAWKADSSPVKAGVETTTPSKQSNNKYAASSYLSLTPEQWKSHRSYSCQVTHEGSTVEKTVAPAECS
notes: IgG1 N297A-scFv (VL-(G4S)4-VH); also called 5A6(NA) x41B02 (1A12)
B6: 5A6(NA)x41B01 (bispecific antibody, human IgG1, lambda, N297A)
heavy: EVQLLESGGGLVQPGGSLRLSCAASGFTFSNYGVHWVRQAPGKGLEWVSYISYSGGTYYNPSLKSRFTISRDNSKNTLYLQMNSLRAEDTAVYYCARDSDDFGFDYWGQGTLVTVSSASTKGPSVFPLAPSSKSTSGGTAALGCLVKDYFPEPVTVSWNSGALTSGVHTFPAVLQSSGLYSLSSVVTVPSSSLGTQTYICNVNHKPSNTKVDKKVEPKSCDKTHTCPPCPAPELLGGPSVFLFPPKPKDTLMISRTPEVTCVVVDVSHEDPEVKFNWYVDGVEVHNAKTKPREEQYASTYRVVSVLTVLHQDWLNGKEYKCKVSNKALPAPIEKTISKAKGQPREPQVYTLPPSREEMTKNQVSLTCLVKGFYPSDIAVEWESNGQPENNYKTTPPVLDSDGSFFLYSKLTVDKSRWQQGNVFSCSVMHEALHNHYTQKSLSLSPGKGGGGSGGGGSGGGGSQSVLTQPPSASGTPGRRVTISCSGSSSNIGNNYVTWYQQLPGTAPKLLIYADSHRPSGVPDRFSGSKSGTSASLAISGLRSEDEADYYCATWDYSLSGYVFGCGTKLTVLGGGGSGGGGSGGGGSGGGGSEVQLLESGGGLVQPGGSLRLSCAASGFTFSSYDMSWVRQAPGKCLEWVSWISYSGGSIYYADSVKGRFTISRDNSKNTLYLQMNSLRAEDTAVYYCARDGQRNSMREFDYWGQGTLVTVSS
light: B5 light
notes: IgG1 N297A-scFv; also called 5A6(NA) x41B01 (1A10)
B7: 5D5M4(NA)x41B01 M12 (bispecific antibody, human IgG1, kappa, N297A)
heavy: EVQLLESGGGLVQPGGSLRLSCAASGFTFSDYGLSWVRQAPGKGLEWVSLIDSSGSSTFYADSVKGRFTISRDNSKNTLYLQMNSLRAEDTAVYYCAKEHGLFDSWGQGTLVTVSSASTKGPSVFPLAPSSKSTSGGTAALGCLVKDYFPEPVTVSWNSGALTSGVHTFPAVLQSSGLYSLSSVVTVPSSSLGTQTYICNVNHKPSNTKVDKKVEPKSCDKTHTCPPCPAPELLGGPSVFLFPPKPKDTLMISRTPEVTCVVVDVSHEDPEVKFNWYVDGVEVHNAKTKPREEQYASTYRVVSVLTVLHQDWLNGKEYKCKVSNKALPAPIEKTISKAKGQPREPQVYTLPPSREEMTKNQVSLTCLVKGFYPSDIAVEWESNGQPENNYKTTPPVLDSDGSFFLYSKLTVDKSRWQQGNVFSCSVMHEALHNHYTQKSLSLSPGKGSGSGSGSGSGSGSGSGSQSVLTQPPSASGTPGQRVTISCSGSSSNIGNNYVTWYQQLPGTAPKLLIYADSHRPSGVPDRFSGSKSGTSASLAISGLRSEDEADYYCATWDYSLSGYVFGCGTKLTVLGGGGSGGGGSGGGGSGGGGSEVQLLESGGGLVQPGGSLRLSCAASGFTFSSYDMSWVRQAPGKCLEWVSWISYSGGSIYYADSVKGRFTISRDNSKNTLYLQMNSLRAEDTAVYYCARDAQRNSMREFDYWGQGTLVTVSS
light: B1 light with R24K, G28D, S31D, Y32A, V33I, A34N, Y91S, N92L, S93R, W94T
notes: IgG1 N297A-(GS)9-scFv
B8: 5D5(NA)xAB41 (bispecific antibody, human IgG1, kappa, N297A)
heavy: not shown
light: B1 light with R24K, G28D, S31D, Y32D, V33I, A34N, Y91S, N92L, S93R, W94T
notes: IgG1 N297A-scFv (VL-(G4S)4-VH)
B9: 5B5(NA)xAB41 (bispecific antibody, human IgG1, kappa, N297A)
heavy: not shown
light: B1 light
notes: as for B8
B10: 5A6(NA)xAB41 (bispecific antibody, human IgG1, lambda, N297A)
heavy: not shown
light: B5 light
notes: as for B8
B11: 41B01 (anti-4-1BB monoclonal antibody) (antibody, V domains shown)
VH: EVQLLESGGGLVQPGGSLRLSCAASGFTFSSYDMSWVRQAPGKGLEWVSWISYSGGSIYYADSVKGRFTISRDNSKNTLYLQMNSLRAEDTAVYYCARDGQRNSMREFDYWGQGTLVTVSS
VL: QSVLTQPPSASGTPGRRVTISCSGSSSNIGNNYVTWYQQLPGTAPKLLIYADSHRPSGVPDRFSGSKSGTSASLAISGLRSEDEADYYCATWDYSLSGYVFGGGTKLTVL
notes: Tested as a human IgG type antibody (detected with anti-human IgG); also called 1A10
B12: 41B02 (anti-4-1BB monoclonal antibody) (antibody, V domains shown)
VH: EVQLLESGGGLVQPGGSLRLSCAASGFTFSGYDMSWVRQAPGKGLEWVSVIYPDDGNTYYADSVKGRFTISRDNSKNTLYLQMNSLRAEDAAVYYCAKHGGQKPTTKSSSAYGMDGWGQGTLVTVSS
VL: B11 VL
notes: Tested as a human IgG type antibody; also called 1A12
B13: 5D5(NA)x41B01 M12 (bispecific antibody, human IgG1, kappa, N297A)
heavy: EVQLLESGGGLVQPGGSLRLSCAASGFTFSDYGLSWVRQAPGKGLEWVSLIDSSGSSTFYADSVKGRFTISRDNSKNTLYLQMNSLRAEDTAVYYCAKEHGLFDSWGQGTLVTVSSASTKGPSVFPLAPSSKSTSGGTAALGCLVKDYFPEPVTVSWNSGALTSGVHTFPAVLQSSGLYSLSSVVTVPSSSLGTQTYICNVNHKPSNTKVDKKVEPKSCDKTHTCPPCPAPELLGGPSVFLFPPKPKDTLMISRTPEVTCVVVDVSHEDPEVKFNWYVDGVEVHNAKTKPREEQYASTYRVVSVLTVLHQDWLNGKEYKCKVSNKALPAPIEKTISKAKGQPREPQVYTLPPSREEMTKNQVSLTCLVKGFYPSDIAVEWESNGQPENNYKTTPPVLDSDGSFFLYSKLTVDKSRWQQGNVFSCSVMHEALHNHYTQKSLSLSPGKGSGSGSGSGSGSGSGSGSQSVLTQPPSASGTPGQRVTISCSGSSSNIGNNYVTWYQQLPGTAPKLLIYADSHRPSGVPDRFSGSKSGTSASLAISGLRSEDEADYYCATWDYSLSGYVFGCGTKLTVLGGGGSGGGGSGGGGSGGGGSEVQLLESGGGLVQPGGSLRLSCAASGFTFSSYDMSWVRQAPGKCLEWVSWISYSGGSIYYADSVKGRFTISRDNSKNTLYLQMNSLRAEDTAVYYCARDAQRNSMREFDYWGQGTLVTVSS
light: B1 light with R24K, G28D, S31D, Y32D, V33I, A34N, Y91S, N92L, S93R, W94T
notes: also called 5D5(NA)x41B01 M12:WT; 5D5WT(NA)x41B01 M12
B14: 5A6(NA)x41B01 M12 (bispecific antibody, human IgG1, lambda, N297A)
heavy: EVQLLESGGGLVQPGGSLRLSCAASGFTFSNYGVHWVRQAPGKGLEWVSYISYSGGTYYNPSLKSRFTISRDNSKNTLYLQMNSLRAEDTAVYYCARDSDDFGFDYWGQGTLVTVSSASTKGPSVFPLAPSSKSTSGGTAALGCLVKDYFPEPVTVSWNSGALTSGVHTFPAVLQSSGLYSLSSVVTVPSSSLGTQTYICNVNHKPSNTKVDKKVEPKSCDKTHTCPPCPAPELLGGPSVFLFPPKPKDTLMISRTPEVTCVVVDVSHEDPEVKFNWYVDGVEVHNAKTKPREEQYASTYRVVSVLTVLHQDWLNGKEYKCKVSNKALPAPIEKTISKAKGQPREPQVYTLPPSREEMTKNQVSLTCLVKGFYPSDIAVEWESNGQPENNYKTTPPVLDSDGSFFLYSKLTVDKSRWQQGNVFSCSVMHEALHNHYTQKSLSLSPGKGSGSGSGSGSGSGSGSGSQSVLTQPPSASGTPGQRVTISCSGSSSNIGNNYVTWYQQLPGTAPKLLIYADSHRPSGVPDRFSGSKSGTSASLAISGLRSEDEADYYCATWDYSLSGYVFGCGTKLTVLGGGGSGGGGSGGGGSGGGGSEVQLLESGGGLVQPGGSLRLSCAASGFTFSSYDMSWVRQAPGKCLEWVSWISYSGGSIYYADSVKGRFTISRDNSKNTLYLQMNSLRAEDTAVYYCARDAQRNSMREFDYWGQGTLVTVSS
light: B5 light
notes: also called 5A6(NA)x41B01 M12:WT; 5A6WT(NA)x41B01 M12

biological target: T4, human 4-1BB on GloResponse NFkB-luc2/4-1BB Jurkat cells (human, UniProt Q07011 24-255); test: cell-based or functional assay
T4 sequence (Q07011 24-255): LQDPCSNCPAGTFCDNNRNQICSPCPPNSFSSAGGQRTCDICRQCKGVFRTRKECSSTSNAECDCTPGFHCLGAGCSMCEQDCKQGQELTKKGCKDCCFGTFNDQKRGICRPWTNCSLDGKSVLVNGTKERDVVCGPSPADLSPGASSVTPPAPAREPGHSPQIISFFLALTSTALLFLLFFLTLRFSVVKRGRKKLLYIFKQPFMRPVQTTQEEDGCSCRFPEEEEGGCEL

Row | Binder | 4-1BB reporter bioassay (NFkB-luc2/4-1BB Jurkat) with H929 cells, EC50 [nM]
1 | B1 | 12.1
2 | B2 | 5.76
3 | B3 | 5.35
4 | B4 | 10.9
5 | B5 | 14.3
6 | B6 | 3.16

biological target: T1, Recombinant Human BCMA; test: SPR, bispecific antibody on Protein A chip, antigen flowed
Description: In the SPR experiment, the anti-BCMA/anti-4-1BB bispecific antibodies obtained in Example 3-5 were individually captured on flow-cells 2, 3 and 4, keeping the flow-cell 1 as reference, on a Protein A Chip on which an anti-BCMA/anti-4-1BB Bispecific antibody (5D5M4(NA)×41B01 M12 or 5A6M6(NA)×41B01 M12) had been immobilized by amine coupling. Recombinant Human BCMA or Human 4-1BB protein was flowed across the chip at concentration range from 100 nM to 6.25 nM for human BCMA or 250 nM to 15.625 nM for human 4-1BB and 0.78 nM at […] for 300 seconds, followed by a dissociation phase of 400 seconds. Regeneration was performed with 10 mM Glycine-HCl (pH 2.0).

Row | Binder | Kd [nM] | koff [s⁻¹] | kon [M⁻¹ s⁻¹]
7 | B7 | 16 | 0.065 | 4.07e+06

biological target: T4, human 4-1BB on GloResponse …; test: cell-based or functional assay; remark: another data set of the same source

Row | Binder | 4-1BB reporter bioassay (NFkB-luc2/4-1BB Jurkat) with CHOK1-hBCMA cells, EC50 [nM]
8 | B1 | 0.003
9 | B2 | 0.0316
10 | B8 | 0.0426
11 | B9 | 0.0741
12 | B3 | 0.0691
13 | B4 | 0.0314
14 | B10 | 0.0397
15 | B5 | 0.0413
16 | B6 | 0.0616

biological target: T5, Recombinant Human 4-1BB protein (human, UniProt Q07011 24-186); test: BLI, Octet Red 96
T5 construct: also called h4-1BB; 4-1BB antigen
Description: To explore the binding kinetics of the humanized antibody, this example performed the affinity ranking by using Octet Red 96.

Row | Binder | Kd [nM] | koff [s⁻¹] | kon [M⁻¹ s⁻¹]
17 | B11 | 0.18 | 0.000119 | 658000
18 | B12 | 1.01 | 0.000603 | 595000

biological target: T2, human BCMA-Fc protein; test: DACE (dual antigen captured ELISA): plate coated with human BCMA-Fc, bispecific antibody titrated, then human 4-1BB-His; Abs at 450 nm

Row | Binder | EC50 (read off the curve) [nM]
19 | B13 | ~0.5
20 | B7 | ~0.4
21 | B14 | ~0.5

biological target: T3, human BCMA on cells (CHOK1-hBCMA; H929 …); test: FACS, 100 nM antibody, H929 cells
Description: (§1) To evaluate the antigen binding property, the antibody candidates were analyzed for their bindings to BCMA expressed cells by FACS. Briefly, CHOK1 expressing human BCMA (CHOK1-hBCMA) or H929 expressing endogenous BCMA cells were treated with the 100 nM of indicated antibodies at 4° C. for 1 hr. CHOK1 cells were used for BCMA-negative control. After washing by FACS buffer (1% (w/v) BSA in PBS), cells were incubated with the FTTC-anti-human IgG antibody at 4° C. for 1 hr and then subjected to FACS analysis. As shown in FIGS. 2d-2f, the anti-BCMAx4-1BB antibodies bind to BCMA expressed CHOK1-hBCMA and H929 cell lines but not BCMA negative CHOK1.

Row | Binder | quantified FACS signal (name not given)
22 | B1 | 14.9
23 | B2 | 17.6
24 | B8 | 19.7
25 | B9 | 14.1
26 | B3 | 17.9
27 | B4 | 20.2
28 | B10 | 39.9
29 | B5 | 40.3
30 | B6 | 43.8

biological target: T4, human 4-1BB on GloResponse …; test: cell-based or functional assay; remark: another data set of the same source

Row | Binder | In vitro 4-1BB activation (reporter bioassay) with H929 cells, EC50 [nM] | In vitro 4-1BB activation (reporter bioassay) with MM1S cells, EC50 [nM]
31 | B13 | 0.629 | 2.66
32 | B7 | 0.377 | 2.41
33 | B14 | 0.459 | 2.26

biological target: T3, human BCMA on cells (CHOK1-hBCMA; H929 …); test: FACS, 100 nM antibody, CHOK1-hBCMA cells
Description: as §1

Row | Binder | quantified FACS signal (name not given)
34 | B1 | 484
35 | B2 | 493
36 | B8 | 585
37 | B9 | 477
38 | B3 | 579
39 | B4 | 602
40 | B10 | 636
41 | B5 | 646
42 | B6 | 652
